Tests used:
Mmp53 = Mmp53 (Mus musculus, UniProt P02340 1-390); assay: anisotropy competition; 25 mM NaPi, 225 mM NaCl, 10% v/v glycerol, 5 mM DTT, 0.2 mg/mL BSA, 22°C; 20 nM labelled DNA; pH not stated for the binding assay; conditions: protein: recombinant; tags: N-terminal 6xHis-lipoyl-TEV tag, cleaved; chain copies: 4
ΔNp63α = molecular target: T1, ΔNp63α (Homo sapiens, UniProt Q9H3D4-2 1-586); assay: as above; conditions: protein: recombinant; tags: N-terminal 6xHis-lipoyl-TEV tag, cleaved; chain copies: 4
T1 sequence: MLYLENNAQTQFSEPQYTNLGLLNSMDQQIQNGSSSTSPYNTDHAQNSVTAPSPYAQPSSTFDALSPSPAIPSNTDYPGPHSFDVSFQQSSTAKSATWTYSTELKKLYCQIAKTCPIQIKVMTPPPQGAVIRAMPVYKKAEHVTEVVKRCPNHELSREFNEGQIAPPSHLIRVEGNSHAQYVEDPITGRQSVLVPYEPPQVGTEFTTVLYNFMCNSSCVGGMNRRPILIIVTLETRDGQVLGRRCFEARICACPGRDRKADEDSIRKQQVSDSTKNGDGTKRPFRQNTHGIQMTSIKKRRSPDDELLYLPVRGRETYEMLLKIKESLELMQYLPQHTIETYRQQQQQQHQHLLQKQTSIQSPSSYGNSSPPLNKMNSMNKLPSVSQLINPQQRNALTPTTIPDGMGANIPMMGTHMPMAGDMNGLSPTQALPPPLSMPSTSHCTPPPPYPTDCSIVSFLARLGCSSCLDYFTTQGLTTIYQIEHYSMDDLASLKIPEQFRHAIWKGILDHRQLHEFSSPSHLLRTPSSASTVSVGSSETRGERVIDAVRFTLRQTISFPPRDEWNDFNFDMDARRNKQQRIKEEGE

Hsp53 = Hsp53 (Homo sapiens, UniProt P04637 1-393); assay: as above; conditions: protein: recombinant; tags: N-terminal 6xHis-lipoyl-TEV tag, cleaved; chain copies: 4
Dmp53 [1] = molecular target: T2, Dmp53 (Drosophila melanogaster, UniProt Q9N6D8 1-385); assay: as above; conditions: protein: recombinant; tags: N-terminal 6xHis-lipoyl-TEV tag, cleaved; chain copies: 4
T2 sequence: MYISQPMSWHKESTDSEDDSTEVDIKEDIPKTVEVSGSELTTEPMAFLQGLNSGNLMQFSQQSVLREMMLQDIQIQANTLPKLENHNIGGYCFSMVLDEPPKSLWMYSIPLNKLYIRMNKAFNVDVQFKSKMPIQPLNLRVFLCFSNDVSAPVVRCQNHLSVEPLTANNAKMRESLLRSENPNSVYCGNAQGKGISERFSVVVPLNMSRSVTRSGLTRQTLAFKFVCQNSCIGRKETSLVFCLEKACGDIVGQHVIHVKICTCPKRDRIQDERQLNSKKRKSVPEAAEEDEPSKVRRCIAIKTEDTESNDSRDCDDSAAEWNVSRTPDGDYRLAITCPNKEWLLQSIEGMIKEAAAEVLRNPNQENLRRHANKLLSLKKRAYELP

ΔNp73β = molecular target: T3, ΔNp73β (Homo sapiens, UniProt O15350-9 1-450); assay: as above; conditions: protein: recombinant; tags: N-terminal 6xHis-lipoyl-TEV tag, cleaved; chain copies: 4
T3 sequence: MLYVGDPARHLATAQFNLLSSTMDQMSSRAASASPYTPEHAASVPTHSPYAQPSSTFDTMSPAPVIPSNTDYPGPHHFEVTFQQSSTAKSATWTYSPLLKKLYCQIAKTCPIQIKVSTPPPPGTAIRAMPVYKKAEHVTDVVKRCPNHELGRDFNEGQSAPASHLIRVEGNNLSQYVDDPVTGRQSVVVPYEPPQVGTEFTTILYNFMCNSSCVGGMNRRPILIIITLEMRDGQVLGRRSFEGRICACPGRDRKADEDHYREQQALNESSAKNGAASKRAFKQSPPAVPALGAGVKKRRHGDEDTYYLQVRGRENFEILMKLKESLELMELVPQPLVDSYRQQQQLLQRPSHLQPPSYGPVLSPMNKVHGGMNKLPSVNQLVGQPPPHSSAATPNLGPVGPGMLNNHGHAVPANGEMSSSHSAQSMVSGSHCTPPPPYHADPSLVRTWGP

p73CT [2] = molecular target: T4, p73CT (Homo sapiens, UniProt O15350 104-383); assay: as above; conditions: protein: recombinant; tags: N-terminal 6xHis-lipoyl-TEV tag, cleaved; chain copies: 4
T4 sequence: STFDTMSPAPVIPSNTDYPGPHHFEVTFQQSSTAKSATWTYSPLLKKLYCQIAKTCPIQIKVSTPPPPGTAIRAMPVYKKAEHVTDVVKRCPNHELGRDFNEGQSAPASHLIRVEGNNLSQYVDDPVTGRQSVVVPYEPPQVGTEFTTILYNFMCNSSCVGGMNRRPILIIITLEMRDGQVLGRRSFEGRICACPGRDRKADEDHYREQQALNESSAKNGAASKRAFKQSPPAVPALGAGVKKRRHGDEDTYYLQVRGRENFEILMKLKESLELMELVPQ

Dmp53 [3] = molecular target: T2, Dmp53; assay: fluorescence anisotropy direct titration; 25 mM sodium phosphate (purification buffer pH 7.2), 225 mM NaCl, 10% v/v glycerol, 5 mM DTT, 0.2 mg/mL BSA, 22 C; conditions: protein: recombinant; tags: N-terminal 6xHis-lipoyl-TEV tag, cleaved; chain copies: 4; label: 5'-Alexa488
p73CT [4] = molecular target: T4, p73CT; assay: as above; conditions: protein: recombinant; tags: N-terminal 6xHis-lipoyl-TEV tag, cleaved; chain copies: 4; label: 5'-Alexa488
Xlp53 = Xlp53 (Xenopus laevis, UniProt Q7T1D0 1-362); assay: as above; conditions: protein: recombinant; tags: N-terminal 6xHis-lipoyl-TEV tag, cleaved; chain copies: 4; label: 5'-Alexa488
Chain of Xlp53 (Q7T1D0 entry or part of it): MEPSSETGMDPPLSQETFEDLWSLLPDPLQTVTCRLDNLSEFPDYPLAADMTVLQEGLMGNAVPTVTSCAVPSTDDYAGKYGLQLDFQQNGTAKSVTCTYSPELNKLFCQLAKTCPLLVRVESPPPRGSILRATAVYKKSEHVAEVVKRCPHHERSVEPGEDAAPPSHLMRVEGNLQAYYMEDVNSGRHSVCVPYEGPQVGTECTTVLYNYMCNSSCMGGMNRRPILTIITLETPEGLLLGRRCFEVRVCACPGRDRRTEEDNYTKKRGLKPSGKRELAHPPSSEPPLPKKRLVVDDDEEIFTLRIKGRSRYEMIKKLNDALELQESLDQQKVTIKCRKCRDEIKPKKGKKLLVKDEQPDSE

Chain of Mmp53 (P02340 whole entry): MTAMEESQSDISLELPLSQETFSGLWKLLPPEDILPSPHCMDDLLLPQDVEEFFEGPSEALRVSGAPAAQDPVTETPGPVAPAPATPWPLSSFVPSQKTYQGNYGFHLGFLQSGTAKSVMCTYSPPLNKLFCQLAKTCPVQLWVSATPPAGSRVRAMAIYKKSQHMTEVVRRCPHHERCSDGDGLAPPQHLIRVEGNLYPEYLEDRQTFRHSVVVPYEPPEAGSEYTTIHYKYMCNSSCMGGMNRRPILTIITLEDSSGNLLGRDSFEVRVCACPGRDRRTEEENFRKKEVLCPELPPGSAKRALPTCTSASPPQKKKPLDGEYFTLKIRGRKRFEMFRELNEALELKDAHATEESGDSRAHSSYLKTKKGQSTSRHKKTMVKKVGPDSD
Chain of Hsp53 (P04637 whole entry): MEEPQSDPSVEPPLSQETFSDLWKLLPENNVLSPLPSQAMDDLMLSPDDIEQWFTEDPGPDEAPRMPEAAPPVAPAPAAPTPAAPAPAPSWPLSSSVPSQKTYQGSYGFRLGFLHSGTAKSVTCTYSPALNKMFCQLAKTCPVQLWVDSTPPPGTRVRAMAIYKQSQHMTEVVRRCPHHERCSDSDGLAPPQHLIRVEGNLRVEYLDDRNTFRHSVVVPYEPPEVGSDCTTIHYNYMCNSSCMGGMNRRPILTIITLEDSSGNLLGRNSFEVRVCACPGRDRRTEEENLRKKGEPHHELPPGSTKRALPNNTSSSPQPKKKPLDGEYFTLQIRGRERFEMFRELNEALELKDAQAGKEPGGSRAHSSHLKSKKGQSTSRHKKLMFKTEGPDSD

Row | Binder | Kd (Mmp53) | Kd (ΔNp63α) | Kd (Hsp53) | Kd (Dmp53 [1]) | Kd (ΔNp73β) | Kd (p73CT [2]) | Kd (Dmp53 [3]) [µM] | Kd (p73CT [4]) [µM] | Kd (Xlp53) [µM]
1 | Ref competitor (dsDNA) DNA 1: CGCGGACATGTCCGGACATGTCCCGC DNA 2: GCGGGACATGTCCGGACATGTCCGCG | -6.88 log10(M) | -7.21 log10(M) | -7.12 log10(M) | -7.56 log10(M) | -7.62 log10(M) | -6.83 log10(M) |  |  | 
2 | Ref_Alexa488 (dsDNA) DNA 1: GGACATGTCCGGACATGTCC DNA 2: GGACATGTCCGGACATGTCC |  |  |  |  |  |  | 0.0525 | 0.24 | 0.0479

Reference: paper PMC2807882, “Conservation of DNA-binding specificity and oligomerisation properties within the p53 family”
